Measurements from patent US20240239881A1 (Innovent, published 2024).

How the values were obtained:
[1] = biological target: T1, Human Ang1 (human, UniProt Q15389 20-498, limits assumed); test: ForteBio BLI, antibody on AHQ sensor
T1 construct: also called hAng1
T1 sequence (looked up): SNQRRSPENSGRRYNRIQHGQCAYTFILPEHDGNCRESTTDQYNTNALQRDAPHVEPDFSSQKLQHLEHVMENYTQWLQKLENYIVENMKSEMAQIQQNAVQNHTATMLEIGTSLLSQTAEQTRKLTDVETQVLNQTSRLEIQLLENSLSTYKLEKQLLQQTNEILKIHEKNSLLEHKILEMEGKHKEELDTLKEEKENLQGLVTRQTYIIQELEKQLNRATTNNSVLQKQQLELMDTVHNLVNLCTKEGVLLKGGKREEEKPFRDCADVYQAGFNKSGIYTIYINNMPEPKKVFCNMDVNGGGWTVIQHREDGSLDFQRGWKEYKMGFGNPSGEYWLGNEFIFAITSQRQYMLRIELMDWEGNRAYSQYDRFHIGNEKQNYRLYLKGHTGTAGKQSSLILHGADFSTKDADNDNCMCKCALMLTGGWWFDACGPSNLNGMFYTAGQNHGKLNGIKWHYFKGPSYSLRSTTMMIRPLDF
Protocol: The equilibrium dissociation constants (KD) of the above exemplary antibodies of the present invention binding to human Ang2 (h Ang2), cynomolgus monkey Ang2 (cAng2), murine Ang2 (mAng2), and human Ang1 (hAng1) were determined using the biological optical interferometry (ForteBio) assay.
The ForteBio affinity assay was performed according to the existing method (Estep, P et al., High throughput solution-based measurement of antibody-antigen affinity and epitope binning. MAbs, 2013.5 (2): p. 270-8). Briefly, the sensor was equilibrated in the assay buffer off-line for 30 min, followed by on-line detection for 60 s to establish the baseline. Then the purified antibodies obtained as described above were loaded on-line onto an AHQ sensor (ForteBio) for ForteBio affinity assay. The sensors with loaded antibodies were exposed to 100 nM of hAng2, cAng2, mAng2, and hAng1 antigens for 5 min, and then were transferred into the assay buffer for dissociation for 5 min to determine the dissociation rate. Kinetic analysis was performed using a 1:1 binding model.

[2] = biological target: T2, Rhesus ANG2 (rhesus, UniProt F6QXG0 19-496); test: SPR, Biacore T200, antibody captured on Protein G chip, experiment 3
T2 sequence: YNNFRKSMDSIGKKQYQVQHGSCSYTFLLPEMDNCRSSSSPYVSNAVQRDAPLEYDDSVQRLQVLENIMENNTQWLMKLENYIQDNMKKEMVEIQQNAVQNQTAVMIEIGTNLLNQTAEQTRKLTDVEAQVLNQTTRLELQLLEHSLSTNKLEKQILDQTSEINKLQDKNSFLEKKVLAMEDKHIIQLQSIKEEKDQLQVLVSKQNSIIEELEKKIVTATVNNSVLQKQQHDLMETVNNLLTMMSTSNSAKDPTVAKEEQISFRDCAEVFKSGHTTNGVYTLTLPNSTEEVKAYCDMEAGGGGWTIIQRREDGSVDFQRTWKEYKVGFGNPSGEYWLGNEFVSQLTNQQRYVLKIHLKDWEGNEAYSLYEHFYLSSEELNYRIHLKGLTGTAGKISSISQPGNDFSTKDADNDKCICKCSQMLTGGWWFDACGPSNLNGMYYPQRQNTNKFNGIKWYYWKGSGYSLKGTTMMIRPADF
Protocol: (§1) The antibody was diluted to 1 μg/mL and was captured onto channel 2 for 30 s, and channel 1 was the blank control channel. The gradient-diluted Human ANG2, Rhesus ANG2, Rabbit ANG2, Rat ANG2 and Mouse ANG2 were sequentially injected into channels 1 and 2 of the chip, from low to high concentrations (0-32 nM), at a flow rate of 30 μL/min, with one concentration per cycle, and with 180 s association time and 1200 s dissociation time at 25° C. Finally, the chip was regenerated using Glycine pH 1.5 at 30 μL/min for 30 s. The affinity assay was repeated three times.

[3] = biological target: T3, human Ang2 (human, UniProt O15123 19-496, limits assumed); test: as above
T3 construct: also called hAng2; h Ang2
T3 sequence: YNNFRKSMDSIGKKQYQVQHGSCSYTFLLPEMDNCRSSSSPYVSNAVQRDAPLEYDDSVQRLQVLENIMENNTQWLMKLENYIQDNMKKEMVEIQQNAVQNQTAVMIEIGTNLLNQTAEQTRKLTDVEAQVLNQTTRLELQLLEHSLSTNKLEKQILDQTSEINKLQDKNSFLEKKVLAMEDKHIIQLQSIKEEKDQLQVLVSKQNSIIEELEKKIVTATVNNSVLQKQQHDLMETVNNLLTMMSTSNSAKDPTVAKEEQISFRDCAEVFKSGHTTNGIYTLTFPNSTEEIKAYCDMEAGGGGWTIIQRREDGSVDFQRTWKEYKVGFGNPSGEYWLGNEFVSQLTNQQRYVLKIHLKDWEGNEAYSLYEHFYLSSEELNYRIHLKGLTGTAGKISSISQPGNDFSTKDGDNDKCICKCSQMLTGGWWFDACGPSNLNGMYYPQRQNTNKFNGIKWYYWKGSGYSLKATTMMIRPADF
Protocol: as §1

[4] = biological target: T4, recombinant biotinylated hAngiopoietin-2 protein (R&D, Cat. No.: BT623B/CF) (human, UniProt O15123 19-496, limits assumed, biotinylated (sites not given)); test: ELISA: biotin Ang2 (R&D BT623B/CF) captured on coated streptavidin (SA), antibody titrated, anti-human IgG-HRP, OD450-OD620, GraphPad fit
T4 construct: Bought protein; also called Biotin Ang2; human biotin Ang2 protein
T4 sequence: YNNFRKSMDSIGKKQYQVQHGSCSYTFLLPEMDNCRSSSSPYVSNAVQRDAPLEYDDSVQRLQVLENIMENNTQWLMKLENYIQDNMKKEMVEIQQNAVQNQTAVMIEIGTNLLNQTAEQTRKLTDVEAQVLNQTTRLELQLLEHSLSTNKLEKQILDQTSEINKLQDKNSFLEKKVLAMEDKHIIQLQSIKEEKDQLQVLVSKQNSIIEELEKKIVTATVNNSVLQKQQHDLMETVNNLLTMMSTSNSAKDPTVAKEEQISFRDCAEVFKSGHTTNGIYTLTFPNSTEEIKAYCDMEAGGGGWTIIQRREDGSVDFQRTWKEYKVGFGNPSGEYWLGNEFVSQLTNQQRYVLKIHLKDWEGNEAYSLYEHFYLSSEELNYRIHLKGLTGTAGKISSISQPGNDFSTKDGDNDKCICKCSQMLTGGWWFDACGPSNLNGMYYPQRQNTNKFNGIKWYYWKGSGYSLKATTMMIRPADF
Protocol: The binding of 81H10 and hz81H10.4 of the present invention to human biotin Ang2 protein was measured in an SA-biotin Ang2-based ELISA assay.
SA protein (Thermo Fisher) was diluted to 1 μg/ml with PBS, and was coated onto a microtiter plate at 100 μl/well at 4° C. overnight. After three washes with PBST, the plate was blocked with 5% BSA for 1 h. Biotin Ang2 (R&D, Cat. No. BT623B/CF) was incubated at a concentration of 0.5 μg/ml for 1 h. Gradient diluted antibodies (maximum concentration 20 nM, 1:3 serial dilution) were added to the microtiter plate and incubated for 2 h, and the plate was washed three times with PBST. […] Then the plate was washed for 6 times with PBST. Chromogenic reaction was performed with 100 ul TMB and terminated with 100 ul 2N sulfuric acid. The reading of OD₄₅₀-OD₆₂₀ was taken by microplate reader. The concentration-dependent curve was fitted with GraphPad based on the OD₄₅₀-OD₆₂₀.

B1: humanized antibody hz81H10.4 (antibody, human IgG1, kappa, V domains shown)
VH: EVQLVESGGGLVKPGGSLRLSCAASGFTFSNYWMNWVRQAPGKGLEWVAEIRLKSNNYATHYAESVKGRFTISRDVSKNTVYLQMNSLKTEDTAVYYCTDTAPFAYWGQGTLVTVSS
VL: DIQMTQSPSSLSASVGDRVTITCKASQDVGTDVAWYQQKPGKAPKLLIYWASTRHTGVPSRFSGSGSGTDFTLTISSLQPEDFATYYCQQYSSYPLTFGGGTKVEIKR
notes: also called IBI335
In the case of B1, the binding result [1] is reported as “no binding (tested: 100 nM)”, the Kd [2] is reported as 0.13 nM and the koff [2] is reported as 4.03e-05 s⁻¹. It also gave a kon [2] of 311000 M⁻¹ s⁻¹, a Kd [3] of 0.0357 nM and a koff [3] of 1.05e-05 s⁻¹. For the same binder, the kon [3] was 293000 M⁻¹ s⁻¹ and the EC50 [4] was 0.0212 nM.
